Laboratory results reported in patent US20250304965A1, “DOUBLE-STRANDED RNA MOLECULE AND PHARMACEUTICAL USE THEREOF” (MACAU UNIVERSITY OF SCIENCE AND TECHNOLOGY, priority 2022, published 2025).
[Ψ] = pseudouridine

Assays:
Format in all cases: cell-based, human
A2780 cells = assay: MTT cytotoxicity analysis, ovarian cancer cells A2780; settings: for IC50: A2780 ovarian cancer cells, 48 hours of treatment, Lipofectamine RNAiMAX transfection reagent, MTT, read-out: Median inhibitory concentration IC50; for inhibition of growth and proliferation (cell viability vs control and RNAiMAX group): ovarian cancer cells A2780, 6.25-200 nM, 48 hours, FIG. 6-8
Procedure: (§1) A2780 and HCT-8 cell lines were cultured in RPMI 1640 medium containing 10% FBS and 1% penicillin/streptomycin. HepG2 cell lines were cultured in MEM medium containing 10% FBS and 1% penicillin/streptomycin. All the above cell lines were cultured at 37° C. in a humidified atmosphere containing 5% CO2.
(§2) In the cytotoxicity analysis, exponentially growing cells of each cancer cell line were inoculated at a density of 5000 cells per well in a 100 μL medium in a 96-well microplate and allowed to adhere for 24 hours prior to treatment. Then obtained RNA molecules at successive concentrations with a nucleic acid transfer vector, namely, Lipofectamine™ RNAiMAX transfection reagent (Thermo Fisher Scientific, United States), were added to the cells. After 48 hours of treatment, MTT solution (50 μL per well, 1 mg/mL solution) was added to each well and incubated at 37° C. for 4 hours. Then 200 μL of dimethyl sulfoxide (DMSO) was added, and an optical density of the resulting solution was measured via calorimetry by using SpectraMax 190 microplate reader (Molecular Devices, United States) at 570 nm. Dose-response curves were obtained and IC50 values were calculated via GraphPad Prism 5 (GraphPad, United States). Each experiment was performed three times.
(§3) Before addition of the MTT solution, the inventor determined the cytotoxic effects and IC 50 of the GL1, GL2, GL4, and GL6 mimics at different concentrations of 6.25 nM, 12.5 nM, 25 nM, 50 nM, 100 nM, and 200 nM on A2780, HCT-8 and HepG2 cells. After 48 hours of the treatment of the double-stranded RNA molecules, the cell viability of these cells was compared with that of the control group and the RNAiMAX group. Paclitaxel was used in a comparative example. […] The results were compared with those of the control group and the RNAiMAX group using the transfection agent. For IC50, refer to Table 4. Paclitaxel was used in a comparative example.
(§4) Then the inventor specifically determined the cytotoxic effects and IC50 of the RNA molecules GL2 mimic and different chemically modified GL10, GL11 and GL12 mimics at different concentrations of 6.25 nM, 12.5 nM, 25 nM, 50 nM, 100 nM, and 200 nM on A2780, HCT-8 and HepG2 cells. […] For IC50, refer to Table 5. Paclitaxel was used in a comparative example.

HCT-8 cells = assay: MTT cytotoxicity analysis, colorectal cancer cells HCT-8; settings: for IC50: HCT-8 colorectal cancer cells, 48 hours of treatment, Lipofectamine RNAiMAX transfection reagent, MTT, read-out: Median inhibitory concentration IC50; for inhibition of growth and proliferation (cell viability vs control and RNAiMAX group): colon cancer cells HCT-8, 6.25-200 nM, 48 hours, FIG. 6-8
Procedure: as §1, §2, §3, §4

HepG2 cells = assay: MTT cytotoxicity analysis, liver cancer cells HepG2; settings: for IC50: HepG2 liver cancer cells, 48 hours of treatment, Lipofectamine RNAiMAX transfection reagent, MTT, read-out: Median inhibitory concentration IC50; for inhibition of growth and proliferation (cell viability vs control and RNAiMAX group): liver cancer cells HepG2, 6.25-200 nM, 48 hours, FIG. 6-8
Procedure: as §1, §2, §3, §4

Molecule | IC50 (A2780 cells) [nM] | inhibition of growth and proliferation (cell viability vs control and RNAiMAX group) (A2780 cells) | IC50 (HCT-8 cells) [nM] | inhibition of growth and proliferation (cell viability vs control and RNAiMAX group) (HCT-8 cells) | IC50 (HepG2 cells) [nM] | inhibition of growth and proliferation (cell viability vs control and RNAiMAX group) (HepG2 cells)
GL12 mimic: chemically modified GL2 double-stranded RNA (pseudouridine); antisense SEQ ID NO: 22, sense SEQ ID NO: 26, length 41 (nucleic acid, antisense: RNA, [Ψ] at 20, backbone not given here; sense: RNA, backbone not given here) antisense: AUAAGGAAUCUGUAGAAGUUCGAUUCUUCUUGGGCUUACCA sense: UGGUAAGCCCAAGAAGAAUCGAACUUCUACAGAUUCCUUAU | 43.7 | have a dose-dependent effect on inhibiting the growth and proliferation | 32.4 | have a dose-dependent effect on inhibiting the growth and proliferation | 183 | have a dose-dependent effect on inhibiting the growth and proliferation
GL11 mimic: chemically modified GL2 double-stranded RNA (5-methyluridine); antisense SEQ ID NO: 21, sense SEQ ID NO: 25, length 41 (nucleic acid, RNA, backbone not given here; further chemistry not fully specified) antisense: AUAAGGAAUCUGUAGAAGTUCGAUUCUUCUUGGGCUUACCA sense: UGGUAAGCCCAAGAAGAAUCGAACUUCUACAGAUUCCUUAU | 17.2 | have a dose-dependent effect on inhibiting the growth and proliferation | 31.5 | have a dose-dependent effect on inhibiting the growth and proliferation | 85.3 | have a dose-dependent effect on inhibiting the growth and proliferation
